From paper PMC6414199, “Bim escapes displacement by BH3-mimetic anti-cancer drugs by double-bolt locking both Bcl-XL and Bcl-2” (eLife, 2019)

Columns and labels:
[1] = molecular target: Bcl-XL single-cysteine mutant 152C, Alexa647-labelled (human) (UniProt Q07817); assay: FRET or BRET; purified Alexa568-labelled BH3 protein (10 nM) and Alexa647-labelled Bcl-XL (40 nM) with liposomes, ABT-263 titrated in; 37 C, 1 h; relative displacements, not absolute affinity
[2] = molecular target: mCerulean3-Bcl-XL (human) (UniProt Q07817); assay: FRET or BRET; FLIM-FRET in live MCF-7 cells: mCer3-Bcl-XL or mCer3-Bcl-2 stably expressed (donor), Venus-BH3 protein transiently expressed (acceptor); binding curves of FLIM-FRET efficiency against the Venus:mCer3 intensity ratio, 25 C; untreated, DMSO, 20 uM ABT-263 (18-24 h) or 1.25-20 uM A-1155463, A-1331852, ABT-263; R values interpolated at ratio 0.5 (Bcl-XL) or 0.25 (Bcl-2), ^VBad4E signal subtracted
mCerulean3-Bcl-2 (human) = mCerulean3-Bcl-2 (human) (UniProt P10415); assay: as above
mCerulean3-Bcl-2 (human), sequence (P10415 whole entry): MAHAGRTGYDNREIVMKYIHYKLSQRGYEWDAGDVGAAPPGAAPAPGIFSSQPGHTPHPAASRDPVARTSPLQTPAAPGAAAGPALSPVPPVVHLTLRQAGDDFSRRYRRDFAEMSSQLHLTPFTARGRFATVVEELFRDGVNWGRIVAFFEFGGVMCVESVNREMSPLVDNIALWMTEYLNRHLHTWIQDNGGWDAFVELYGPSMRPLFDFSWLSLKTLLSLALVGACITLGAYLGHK

mCerulean3-Bcl-XL (human), sequence (Q07817 whole entry): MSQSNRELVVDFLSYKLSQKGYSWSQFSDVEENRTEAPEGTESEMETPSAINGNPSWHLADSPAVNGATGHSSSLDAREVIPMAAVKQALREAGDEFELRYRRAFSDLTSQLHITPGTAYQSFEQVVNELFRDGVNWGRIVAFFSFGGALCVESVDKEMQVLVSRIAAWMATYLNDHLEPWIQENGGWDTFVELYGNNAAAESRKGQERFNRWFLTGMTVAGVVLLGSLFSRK
Venus-BimEL-dCTS (domain or fragment), sequence (O54918 whole entry, the tested form may be a part): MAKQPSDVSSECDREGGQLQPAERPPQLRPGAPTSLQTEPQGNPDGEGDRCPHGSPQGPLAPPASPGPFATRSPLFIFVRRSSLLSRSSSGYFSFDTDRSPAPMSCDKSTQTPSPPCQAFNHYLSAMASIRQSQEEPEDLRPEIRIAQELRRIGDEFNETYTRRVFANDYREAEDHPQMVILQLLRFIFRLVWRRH
Venus-BimEL BH3-2A, sequence (O54918 whole entry): as the sequence (O54918 whole entry, the tested form may be a part) above
Venus-BimEL-dN (domain or fragment), sequence (O54918 whole entry, the tested form may be a part): as above
Bcl-XL single-cysteine mutant 152C, Alexa647-labelled (human), sequence (Q07817 other isoform, or with tags, fused parts or gaps mutant): as the sequence (Q07817 whole entry) above, with V152C counted along it

| R (ABT-263), % of FRET signal left with 20 uM ABT-263 [2] [%] | R (ABT-263), % of FRET signal left with 20 uM ABT-263 (mCerulean3-Bcl-2 (human)) [%] | R (BH3-2A), % of FRET signal of the same construct without BH3-2A [2] [%] | R (BH3-2A), % of FRET signal of the same construct without BH3-2A (mCerulean3-Bcl-2 (human)) [%] | Substance | other results |
| --- | --- | --- | --- | --- | --- |
|  |  |  |  | Bid single-cysteine mutant 126C (tBid, added as cBid), Alexa568-labelled (domain or fragment) | IC50 of ABT-263 for displacing the pair [1]: 400 nM |
| 98 | 65.5 |  |  | Venus-Bad with the BH3 region of Bim |  |
|  |  | 70.2 | 54.9 | Venus-Bad-Bim BH3-2A |  |
| 83.2 | 53.2 |  |  | Venus-Bad-Bim-I146Y |  |
|  |  | 46.6 |  | Venus-Bad-Bim-I146Y BH3-2A |  |
| 89 | 69.1 |  |  | Venus-Bad-Bim-I146Y-I153M |  |
|  |  | 56.8 | 42.6 | Venus-Bad-Bim-I146Y-I153M BH3-2A |  |
| 90.2 | 61.8 |  |  | Venus-Bad-Bim-I146Y-Q148R |  |
|  |  | 50.5 | 37.7 | Venus-Bad-Bim-I146Y-Q148R BH3-2A |  |
| 92.8 | 68.5 |  |  | Venus-Bad-Bim-I153M |  |
|  |  | 96.5 | 102 | Venus-Bad-Bim-I153M BH3-2A |  |
| 89.8 | 53.5 |  |  | Venus-Bad-Bim-Q148R |  |
|  |  | 74.5 | 56.9 | Venus-Bad-Bim-Q148R BH3-2A |  |
|  |  | 81.4 | 66.8 | Venus-BimEL BH3-2A (from UniProt O54918-1 1-196) (natural protein) |  |
| 60.5 | 65.8 |  |  | Venus-BimEL with the BH3 region of Bad |  |
|  |  | 26.1 |  | Venus-BimEL-Bad BH3-2A |  |
| 40.2 | 12.5 |  |  | Venus-BimEL-Bad-dCTS |  |

| R (ABT-263), % of FRET signal left with 20 uM ABT-263 [2] [%] | R (ABT-263), % of FRET signal left with 20 uM ABT-263 (mCerulean3-Bcl-2 (human)) [%] | R (BH3-2A), % of FRET signal of the same construct without BH3-2A [2] [%] | R (BH3-2A), % of FRET signal of the same construct without BH3-2A (mCerulean3-Bcl-2 (human)) [%] | Substance | other results |
| --- | --- | --- | --- | --- | --- |
|  |  | 71 | 54.2 | Venus-BimEL-I146Y BH3-2A (from UniProt O54918-1 1-196) (natural protein) |  |
| 38.5 | 52.9 |  |  | Venus-BimEL-I146Y-dCTS (domain or fragment) |  |
|  |  | 49.2 | 47.2 | Venus-BimEL-I181E BH3-2A (from UniProt O54918-1 1-196) (natural protein) |  |
|  |  | 67.2 | 47.5 | Venus-BimEL-I188E BH3-2A (from UniProt O54918-1 1-196) (natural protein) |  |
|  |  | 159 |  | Venus-BimEL-L185A BH3-2A (from UniProt O54918-1 1-196) (natural protein) |  |
|  |  | 100 |  | Venus-BimEL-L185F BH3-2A (from UniProt O54918-1 1-196) (natural protein) |  |
|  |  | 86.8 |  | Venus-BimEL-L185G BH3-2A (from UniProt O54918-1 1-196) (natural protein) |  |
|  |  | 49.1 |  | Venus-BimEL-L185H BH3-2A (from UniProt O54918-1 1-196) (natural protein) |  |
|  |  | 90 |  | Venus-BimEL-L185M BH3-2A (from UniProt O54918-1 1-196) (natural protein) |  |
|  |  | 59 |  | Venus-BimEL-L185P BH3-2A (from UniProt O54918-1 1-196) (natural protein) |  |
|  |  | 48.1 |  | Venus-BimEL-L185R BH3-2A (from UniProt O54918-1 1-196) (natural protein) |  |
|  |  | 73.5 |  | Venus-BimEL-L185S BH3-2A (from UniProt O54918-1 1-196) (natural protein) |  |
|  |  | 52.6 | 54.5 | Venus-BimEL-V192E BH3-2A (from UniProt O54918-1 1-196) (natural protein) |  |
| 69 | 60 |  |  | Venus-BimEL-dCTS (domain or fragment) |  |
|  |  | 15.1 | 13.6 | Venus-BimEL-dCTS BH3-2A (domain or fragment) |  |
| 90.8 | 90.5 |  |  | Venus-BimEL-dN (domain or fragment) |  |
